Assay [1] addresses KS-PPT di-domain construct of the yeast FAS α-subunit (S. cerevisiae). Nature of the assay: SEC; Superdex 200 Increase 30/100 GL column with calibration curve; KS-PPT di-domain construct.
The target is the same in assay [2]. Described as above. The source holds these as a separate data set.
In assay [3] the target is α_ΔMPT-ACP construct of the yeast FAS α-subunit (KS-PPT elongated N-terminally by DM1, DM2 and KR) (S. cerevisiae). Nature of the assay: SEC; Superose 6 Increase 30/100 GL column, TRIS-HCl buffer N100; protein preparations from purifications under native and denaturing conditions (refolded).

Like-named read-outs stand apart in the source and are kept apart here.

In the case of “KS-PPT di-domain construct of the yeast FAS α-subunit (domain or fragment)”, the stoichiometry N in assay [1] was determined as 2; in assay [2] it was 2.5.
Take “α_ΔMPT-ACP construct of the yeast FAS α-subunit (KS-PPT elongated N-terminally by DM1, DM2 and KR) (domain or fragment)”: the stoichiometry N in assay [3] was 2.

For orientation: stoichiometry N means the number of molecules, sites or subunits per partner or assembly.

The values are drawn from publication PMC6972935.
